From the supplement of paper PMC12764529
± gives the half width of the 95% confidence interval.

Tests used:
[1] = folding stability dG unfold from chymotrypsin proteolysis; higher = more stable
Procedure, shortened: (§1)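 Mini-proteins designed to be under 80 residues and free of cysteine were carried in a PA-tagged cDNA display construct and digested with trypsin and with chymotrypsin. Each protease was applied at 11 threefold-diluted concentrations, alongside a no-protease condition, before sequencing. K50 came from Bayesian fitting of the sequencing counts, and unfolding free energy was obtained by comparing it with a sequence-predicted unfolded-state K50 and a shared folded-state K50, for each protease separately or for both together. Designs were retained only if their AlphaFold2 dimer inter-PAE exceeded 15.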

[2] = folding stability dG unfold (combined trypsin and chymotrypsin); higher = more stable
Procedure, shortened: as §1

[3] = folding stability dG unfold from trypsin proteolysis; higher = more stable
Procedure, shortened: as §1

Row | Sequence | folding stability dG unfold [1] | folding stability dG unfold [2] | folding stability dG unfold [3]
1 | SAGGSADPDDKEQKIKVEIETYRLEDNGMEVTRIELEGHGMPIYIARFPDGRMFIFTANGELEQIPSAGGSA [r15_617_TrROS] | 2.71 ± 0.059 kcal/mol | 2.41 ± 0.16 kcal/mol | 1.97 ± 0.14 kcal/mol
2 | SAGGSADIKIIKLPEKNELVILVPGEFDENVPLVLHDEGGPSWEVVDARVERVGDDLIITAKVRKSSAGGSA [r15_838_TrMRF] | 0.701 ± 0.049 kcal/mol | 0.691 ± 0.099 kcal/mol | 0.594 ± 0.037 kcal/mol
3 | SAGGSALTLNDKSLIPKPFPKKKAIVDVAVPLPPNLTLEEALEVAEAIANNLLKAGKIDEATVAIYSAGGSA [r15_450_TrMRF] | 0.151 ± 0.15 kcal/mol | 0.108 ± 0.091 kcal/mol | -0.0583 ± 0.11 kcal/mol
4 | SAGGSAGGSAGGSSTSLIGNSTVTVDPVYVTDTGERGFVISADVPPSVSEAVVEAHVASSAGGSAGGSAGGS [r10_531_JUSTAS] | 0.0382 ± 0.022 kcal/mol | 0.485 ± 0.05 kcal/mol | 0.869 ± 0.028 kcal/mol
5 | SAGNDEEDQKKAEEQQKPPLEIEPIRVMVMVPFPGGDLLISITIPIIKYPDGGIIIPIPIEIIPLEDISAGG [r19_11_TrROS] | 2.84 ± 0.085 kcal/mol | 2.5 ± 0.1 kcal/mol | 2.06 ± 0.093 kcal/mol
6 | SAGALEETTLPLPRPESLPDVSPEVLAALILALLSAVGVTVEVLSSDPANPVTAMVATRDGRVVLRALASAG [r5_80_JUSTAS] | 2.34 ± 0.051 kcal/mol | 2.06 ± 0.068 kcal/mol | 1.58 ± 0.049 kcal/mol
7 | SAGGSAGGSAGGPPSVPITITLIILFPDGYFIVIELTIEVPPDGEIEIKIKILHIFPVKSAGGSAGGSAGGS [r10_1139_TrROS] | 3.76 ± 0.12 kcal/mol | 3.6 ± 0.12 kcal/mol | 3.1 ± 0.093 kcal/mol
8 | SAGGSAGGSKSKKYIEIDFSNLTEIKFNPNTNYATAIFKDKGKIYIAKIHFLPNGKAIAEVFDSAGGSAGGS [r12_839_TrMRF] | 2.931 ± 0.025 kcal/mol | 2.68 ± 0.077 kcal/mol | 1.67 ± 0.054 kcal/mol
9 | SAGGDKKKVKIHIFPPPGMPMDNFANYIQDQLGWDRNNIKVEPMDSPQEAERRAEKNGKPEIVIFFRSAGGS [r8_245_TrROS] | 1.02 ± 0.54 kcal/mol | 0.456 ± 0.32 kcal/mol | -0.216 ± 0.31 kcal/mol
10 | SMTIELTVPSPEELLAALKALADAGIKGAKIRITVTNPDGEEQEIEVDSIEDLEALIESGPVTVRVEIEPSA [r9_589_TrROS_Hall] | 2.5 ± 0.084 kcal/mol | 3.05 ± 0.14 kcal/mol | 3.56 ± 0.13 kcal/mol
11 | SAGGSASMKIRVYTISLYRPDGESVRDVPIVVPENEPDVDPEALAKAIADELGLVKVEISEEIVPLSAGGSA [r15_333_JUSTAS] | 1.4 ± 0.31 kcal/mol | 1.14 ± 0.18 kcal/mol | 0.589 ± 0.097 kcal/mol
12 | SAGGSAGGSAGGPDDWVEVYFIMVSIKPKEVKPDPNGGAEYEFEIKISIFPFWIPPDDISAGGSAGGSAGGS [r10_524_TrROS] | 4.15 ± 0.18 kcal/mol | 3.94 ± 0.22 kcal/mol | 3.33 ± 0.26 kcal/mol
13 | SGLAPGEVVPEKFEREITDPETGKKYKVEVTTEIAPENPVRRVTVTTTPPDGTTTTTEEVIPPGEEYTLESA [r9_88_JUSTAS] | 0.867 ± 0.092 kcal/mol | 0.468 ± 0.077 kcal/mol | -0.889 ± 0.27 kcal/mol
14 | SAGGKKIKITVKELKKKLEEEGYEIEEIEIYNKKTGKKIKTIKEGDVIELPENVKNVVIKVKIKKKKSAGGS [r8_243_TrROS_Hall] | 2.86 ± 0.17 kcal/mol | 2.57 ± 0.34 kcal/mol | 2.16 ± 0.19 kcal/mol
15 | SAGGSAGGPNWVKFPIMFEMPIPVVPKMEKDPDGENRMEPVKPVRISIMIELTLPPDDLEDLIKSAGGSAGG [r6_120_TrROS] | 2.28 ± 0.11 kcal/mol | 1.83 ± 0.18 kcal/mol | 1.41 ± 0.083 kcal/mol
16 | SAGGSAGGSAGGSGSVRIKVYNPKTGEVLELEVPEELVPAAVEAAKALGFEKVEVSPGKSAGGSAGGSAGGS [r4_102_TrMRF] | 2.91 ± 0.077 kcal/mol | 2.49 ± 0.13 kcal/mol | 1.59 ± 0.065 kcal/mol
17 | SMKMSPEEKLKELAKELAEKLEEETGKKVKVRVTVEYNGKTFEIEIEEGETIEDIRNKFPGLKIKVEIEPSA [r9_513_TrROS_Hall] | 0.00992 ± 0.22 kcal/mol | 1.08 ± 0.41 kcal/mol | 1.34 ± 0.17 kcal/mol
18 | SAGGLAKAVAEELGLPELKVKEVRFAPDPAGPGLTVEVVFELPDGSYLRVEVRFHPDRIEIKAVPLPPSAGG [r19_392_TrMRF] | 3.65 ± 0.15 kcal/mol | 3.23 ± 0.15 kcal/mol | 2.09 ± 0.093 kcal/mol
19 | SAATLPPGTKVLTLTVTVRVPPGVSVEDLAAALAAELRRRLGPGAKITVTVTYDPETDTLTVTVTVVLPPSA [r9_657_TrROS_Hall] | 4.66 ± 0.078 kcal/mol | 4.38 ± 0.081 kcal/mol | 3.53 ± 0.091 kcal/mol
20 | SAGGSAGGSKIPPNQFIVRIEIKRRKPNGEKRKHEIIIPVGMPLDTLRDHAPPGYEITDIEVISAGGSAGGS [r12_597_TrROS] | 1.8 ± 0.021 kcal/mol | 1.6 ± 0.05 kcal/mol | 1.17 ± 0.023 kcal/mol
21 | SAGGSAGGSAMPPLISTTPILGEEPGKRLVREIVTLPDGSLIELTYDEDGNVIESKKYIVGKSAGGSAGGSA [r18_467_JUSTAS] | 1.22 ± 0.037 kcal/mol | 0.94 ± 0.049 kcal/mol | 0.132 ± 0.041 kcal/mol

Row | Sequence | folding stability dG unfold [1] | folding stability dG unfold [2] | folding stability dG unfold [3]
22 | SAGGSAGGSAGKPIIKVKIIEKKDGYLKIEIEDEKTGETKTITLKPGQKLEIKLELVKEPSAGGSAGGSAGG [r11_738_TrROS_Hall] | 1.33 ± 0.064 kcal/mol | 1.62 ± 0.11 kcal/mol | 1.92 ± 0.15 kcal/mol
23 | SAGGSAGGSMTIVIKVKSKEDALEAAKALLAELGIEEGAEVKKIEVEEVDPENKEYYVRIEVKSAGGSAGGS [r12_999_TrROS_Hall] | 1.7 ± 0.029 kcal/mol | 1.75 ± 0.14 kcal/mol | 1.72 ± 0.13 kcal/mol
24 | SAGGSAGGSAGGKKKKVIEIELKPGEKLTLEQIKEIAKKLNVKKVKVEKVDGKLKIVVESAGGSAGGSAGGS [r10_642_TrROS_Hall] | 0.892 ± 0.065 kcal/mol | 0.815 ± 0.16 kcal/mol | 0.502 ± 0.057 kcal/mol
25 | SAGGSAGGSAGGVEIVIMFPRGMPPEQFAKMIAKWLRRQGLPPNVKVDIKIIPIDPDDMSAGGSAGGSAGGS [r10_746_TrROS] | 3.35 ± 0.066 kcal/mol | 3.15 ± 0.18 kcal/mol | 2.82 ± 0.051 kcal/mol
26 | SAGGEVKYEHEGKNPDNGNMYKQEQEVPPVPIPPVIVIPAEDLDEFRELGIPENFKILPGNGWIVITSAGGS [r16_194_TrROS] | 0.154 ± 0.25 kcal/mol | 0.425 ± 0.13 kcal/mol | 0.44 ± 0.091 kcal/mol
27 | SAGASVEQWSLTSVEVTELPGPEVVVPMTARLPDGTEVVMSGVVGPGSVTLTSPDGSTSTLAIPPALASAGG [r19_84_JUSTAS] | 0.734 ± 0.045 kcal/mol | 1.03 ± 0.04 kcal/mol | 1.2 ± 0.023 kcal/mol
28 | SAGGSAGGSAKKPKKFKITKISTVKNKNGKTYYKLVIEDEKTKKKYVFVFPKNKEEILKALSAGGSAGGSAG [r3_57_TrROS_Hall] | 2.53 ± 0.062 kcal/mol | 2.45 ± 0.15 kcal/mol | 2 ± 0.061 kcal/mol
29 | SAGGSAGGSFKAPPGEKYVLKLRSPENGQEFMVEFTPDNIKISNPNDEKMPFPPDDITDVKDVSAGGSAGGS [r20_35_TrROS] | 0.0465 ± 0.24 kcal/mol | -0.109 ± 0.17 kcal/mol | -0.612 ± 0.33 kcal/mol
30 | SAGGSAGGSWKIVEIEVQRFPDGMYMVEIRFPDHGMPVTVHIDPPKNKITIYFPNGRSIEIPFSAGGSAGGS [r12_88_TrROS] | 4.22 ± 0.089 kcal/mol | 3.99 ± 0.12 kcal/mol | 3.26 ± 0.11 kcal/mol
31 | SAMRMISFPIESPEELEDELEEKFGVEVETFPDGMRMIKFRRNNEPVIIMIPPNNGHITIIPPEDMDKMSAG [r14_402_TrROS] | 1.28 ± 0.21 kcal/mol | 1.01 ± 0.15 kcal/mol | 0.685 ± 0.19 kcal/mol
32 | SAGGEEVVEEPPPPEVEVIEIRDAETDRTVTLVYNKDTGKLFLFDEDTGLVYEFDVDGRLVRVERLPPSAGG [r13_101_TrROS_Hall] | 4.48 ± 0.1 kcal/mol | 4.16 ± 0.39 kcal/mol | 2.95 ± 0.26 kcal/mol
33 | SKTYLVKVTIEYGGKTIEIEVEVETLEEALAAVRAALPPEERAQLPPDAKVTVEVYELPEVDEETGELLESA [r9_111_TrROS_Hall] | 4.2 ± 0.048 kcal/mol | 3.84 ± 0.059 kcal/mol | 2.83 ± 0.07 kcal/mol
34 | SAGGSAMTTVTWTFPPSTSVEEAIEALKAQLEAERNEKIEIPSISVSTTGDTITVTLPIKIEPLPASAGGSA [r15_105_JUSTAS] | 0.327 ± 0.22 kcal/mol | 1.26 ± 0.14 kcal/mol | 1.86 ± 0.049 kcal/mol
35 | SAGGSAGGSGSFSLSFPDADGVSVTLDPNTGIVTMSFNRPDANYTITLERYPDSIVVKEIKLPSAGGSAGGS [r20_60_JUSTAS] | 1.48 ± 0.1 kcal/mol | 1.32 ± 0.062 kcal/mol | 1.05 ± 0.026 kcal/mol
36 | SAGGSAGGSAGGVVVVEVEIRLSDEEIEALKDLGISAEDLTLRVTVVVELPPPPPAEEESAGGSAGGSAGGS [r10_1149_TrROS_Hall] | 1.04 ± 0.13 kcal/mol | 1.5 ± 0.21 kcal/mol | 2.23 ± 0.2 kcal/mol
37 | SAGGSAGGSAGGKKVKVIKVSVTYDPKTKKLTIKVEKTGKTYTIPLKEIELVNGYLKIKSAGGSAGGSAGGS [r10_942_TrROS_Hall] | 2.45 ± 0.11 kcal/mol | 2.21 ± 0.34 kcal/mol | 1.78 ± 0.11 kcal/mol
38 | SAGGSAGGSAGKKIPFGKNVKILEIEEIDPDIIIIKFENSVFIVRILPNGEVKVIKFDIDSAGGSAGGSAGG [r11_612_TrMRF] | 2.4 ± 0.027 kcal/mol | 2.33 ± 0.09 kcal/mol | 1.83 ± 0.042 kcal/mol
39 | SAGGSAGGSAGGMILVENPSLNESTVLSKDTPISSFKVPSDNSKVRIIIIYPSNSFVVISSAGGSAGGSAGG [r7_763_JUSTAS] | 1.55 ± 0.14 kcal/mol | 1.71 ± 0.088 kcal/mol | 1.85 ± 0.073 kcal/mol
40 | SMVTVEEYEEDDEYYVKVYDPEKGVGVVFKTKDGVFKMPVTDPEALKEAIKASGIDVEIVEVRPLGPGLVSA [r9_1102_JUSTAS] | 0.581 ± 0.1 kcal/mol | 0.492 ± 0.083 kcal/mol | 0.357 ± 0.036 kcal/mol
41 | SAKEELYIIEIKVYVDGKEVKTITKVITVPEEKLEEKLKELLKKLAEELGLEIKKVEVKIKKLSLEELKSAG [r14_104_TrROS_Hall] | 3.09 ± 0.14 kcal/mol | 2.83 ± 0.34 kcal/mol | 2.79 ± 0.22 kcal/mol
42 | SAGGSAGGSAMTPVTIKVTLTNPATGSTTTKTIYVPEPNPSVEEIKKKLPSDWTVTSITLSSAGGSAGGSAG [r3_80_JUSTAS] | 0.828 ± 0.16 kcal/mol | 1.07 ± 0.16 kcal/mol | 1.23 ± 0.045 kcal/mol
